Laboratory results taken from the supplement of paper PMC11316812.
± gives the standard deviation of the averaged measurements.

Legend:
MCF7 = experiment: percentage of EdU-negative (G0-arrested) nuclei per well, 72 h; higher = more G0 arrest; conditions: reference: sequence is the full UniProt precursor, the tested protein was the secreted form or ectodomain
hTERT-HMEC = experiment: as above; conditions: reference: sequence is the full UniProt precursor, the tested protein was the secreted form or ectodomain
[1] = protein concentration 0.01422 µM
[2] = protein concentration 0.1422 µM
[3] = protein concentration 0.0225 µM
[4] = protein concentration 0.03125 µM
[5] = protein concentration 0.3125 µM
[6] = protein concentration 0.02535 µM
[7] = protein concentration 0.2535 µM
[8] = protein concentration 0.0260325 µM
[9] = protein concentration 0.260325 µM
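Further: secreted proteins added to cultured cells, EdU pulse at the end, nuclei found by Hoechst imaging, EdU status from nuclear versus surrounding ring intensity ratio, PBS as neutral control.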

Sequence | percentage of EdU-negative (MCF7; [3]) | percentage of EdU-negative (MCF7; protein concentration 0.225 µM) | percentage of EdU-negative (hTERT-HMEC; [3]) | percentage of EdU-negative (hTERT-HMEC; protein concentration 0.225 µM) | other results
MGAPACALALCVAVAIVAGASSESLGTEQRVVGRAAEVPGPEPGQQEQLVFGSGDAVELSCPPPGGGPMGPTVWVKDGTGLVPSERVLVGPQRLQVLNASHEDSGAYSCRQRLTQRVLCHFSVRVTDAPSSGDDEDGEDEAEDTGVDTGAPYWTRPERMDKKLLAVPAANTVRFRCPAAGNPTPSISWLKNGREFRGEHRIGGIKLRHQQWSLVMESVVPSDRGNYTCVVENKFGSIRQTYTLDVLERSPHRPILQAGLPANQTAVLGSDVEFHCKVYSDAQPHIQWLKHVEVNGSKVGPDGTPYVTVLKTAGANTTDKELEVLSLHNVTFEDAGEYTCLAGNSIGFSHHSAWLVVLPAEEELVEADEAGSVYAGILSYGVGFFLFILVVAAVTLCRLRSPPKKGLGSPTVHKISRFPLKRQVSLESNASMSSNTPLVRIARLSSGEGPTLANVSELELPADPKWELSRARLTLGKPLGEGCFGQVVMAEAIGIDKDRAAKPVTVAVKMLKDDATDKDLSDLVSEMEMMKMIGKHKNIINLLGACTQGGPLYVLVEYAAKGNLREFLRARRPPGLDYSFDTCKPPEEQLTFKDLVSCAYQVARGMEYLASQKCIHRDLAARNVLVTEDNVMKIADFGLARDVHNLDYYKKTTNGRLPVKWMAPEALFDRVYTHQSDVWSFGVLLWEIFTLGGSPYPGIPVEELFKLLKEGHRMDKPANCTHDLYMIMRECWHAAPSQRPTFKQLVEDLDRVLTVTSTDEYLDLSAPFEQYSPGGQDTPSSSSSGDDSVFAHDLLPPAPPSSGGSRT | – | – | – | – | percentage of EdU-negative (MCF7; [1]): 27.1 ± 3.1%; percentage of EdU-negative (MCF7; [2]): 25.5 ± 3.1%; percentage of EdU-negative (hTERT-HMEC; [1]): 5.58 ± 0.063%; percentage of EdU-negative (hTERT-HMEC; [2]): 5.64 ± 0.3%
MGAYARASGVCARGCLDSAGPWTMSRALRPPLPPLCFFLLLLAAAGARAGGYETCPTVQPNMLNVHLLPHTHDDVGWLKTVDQYFYGIKNDIQHAGVQYILDSVISALLADPTRRFIYVEIAFFSRWWHQQTNATQEVVRDLVRQGRLEFANGGWVMNDEAATHYGAIVDQMTLGLRFLEDTFGNDGRPRVAWHIDPFGHSREQASLFAQMGFDGFFFGRLDYQDKWVRMQKLEMEQVWRASTSLKPPTADLFTGVLPNGYNPPRNLCWDVLCVDQPLVEDPRSPEYNAKELVDYFLNVATAQGRYYRTNHTVMTMGSDFQYENANMWFKNLDKLIRLVNAQQAKGSSVHVLYSTPACYLWELNKANLTWSVKHDDFFPYADGPHQFWTGYFSSRPALKRYERLSYNFLQVCNQLEALVGLAANVGPYGSGDSAPLNEAMAVLQHHDAVSGTSRQHVANDYARQLAAGWGPCEVLLSNALARLRGFKDHFTFCQQLNISICPLSQTAARFQVIVYNPLGRKVNWMVRLPVSEGVFVVKDPNGRTVPSDVVIFPSSDSQAHPPELLFSASLPALGFSTYSVAQVPRWKPQARAPQPIPRRSWSPALTIENEHIRATFDPDTGLLMEIMNMNQQLLLPVRQTFFWYNASIGDNESDQASGAYIFRPNQQKPLPVSRWAQIHLVKTPLVQEVHQNFSAWCSQVVRLYPGQRHLELEWSVGPIPVGDTWGKEVISRFDTPLETKGRFYTDSNGREILERRRDYRPTWKLNQTEPVAGNYYPVNTRIYITDGNMQLTVLTDRSQGGSSLRDGSLELMVHRRLLKDDGRGVSEPLMENGSGAWVRGRHLVLLDTAQAAAAGHRLLAEQEVLAPQVVLAPGGGAAYNLGAPPRTQFSGLRRDLPPSVHLLTLASWGPEMVLLRLEHQFAVGEDSGRNLSAPVTLNLRDLFSTFTITRLQETTLVANQLREAASRLKWTTNTGPTPHQTPYQLDPANITLEPMEIRTFLASVQWKEVDG | 24.7 ± 1.5% | 24.7 ± 1.2% | 4.43 ± 0.26% | 5.51 ± 0.44% | –
MGCLLFLLLWALLQAWGSAEVPQRLFPLRCLQISSFANSSWTRTDGLAWLGELQTHSWSNDSDTVRSLKPWSQGTFSDQQWETLQHIFRVYRSSFTRDVKEFAKMLRLSYPLELQVSAGCEVHPGNASNNFFHVAFQGKDILSFQGTSWEPTQEAPLWVNLAIQVLNQDKWTRETVQWLLNGTCPQFVSGLLESGKSELKKQVKPKAWLSRGPSPGPGRLLLVCHVSGFYPKPVWVKWMRGEQEQQGTQPGDILPNADETWYLRATLDVVAGEAAGLSCRVKHSSLEGQDIVLYWGGSYTSMGLIALAVLACLLFLLIVGFTSRFKRQTSYQGVL | 23.9 ± 2.6% | 27.61 ± 0.11% | 4.97 ± 0.24% | 5.04 ± 0.17% | –
MGCRAASGLLPGVAVVLLLLLQSTQSVYIQYQGFRVQLESMKKLSDLEAQWAPSPRLQAQSLLPAVCHHPALPQDLQPVCASQEASSIFKTLRTIANDDCELCVNVACTGCL | 27.3 ± 2.2% | 27.8 ± 1.8% | 4.91 ± 1.5% | 9.77 ± 1.3% | –
MGCWGQLLVWFGAAGAILCSSPGSQETFLRSSPLPLASPSPRDPKVSAPPSILEPASPLNSPGTEGSWLFSTCGASGRHGPTQTQCDGAYAGTSVVVTVGAAGQLRGVQLWRVPGPGQYLISAYGAAGGKGAKNHLSRAHGVFVSAIFSLGLGESLYILVGQQGEDACPGGSPESQLVCLGESRAVEEHAAMDGSEGVPGSRRWAGGGGGGGGATYVFRVRAGELEPLLVAAGGGGRAYLRPRDRGRTQASPEKLENRSEAPGSGGRGGAAGGGGGWTSRAPSPQAGRSLQEGAEGGQGCSEAWATLGWAAAGGFGGGGGACTAGGGGGGYRGGDASETDNLWADGEDGVSFIHPSSELFLQPLAVTENHGEVEIRRHLNCSHCPLRDCQWQAELQLAECLCPEGMELAVDNVTCMDLHKPPGPLVLMVAVVATSTLSLLMVCGVLILVKQKKWQGLQEMRLPSPELELSKLRTSAIRTAPNPYYCQVGLGPAQSWPLPPGVTEVSPANVTLLRALGHGAFGEVYEGLVIGLPGDSSPLQVAIKTLPELCSPQDELDFLMEALIISKFRHQNIVRCVGLSLRATPRLILLELMSGGDMKSFLRHSRPHLGQPSPLVMRDLLQLAQDIAQGCHYLEENHFIHRDIAARNCLLSCAGPSRVAKIGDFGMARDIYRASYYRRGDRALLPVKWMPPEAFLEGIFTSKTDSWSFGVLLWEIFSLGYMPYPGRTNQEVLDFVVGGGRMDPPRGCPGPVYRIMTQCWQHEPELRPSFASILERLQYCTQDPDVLNSLLPMELGPTPEEEGTSGLGNRSLECLRPPQPQELSPEKLKSWGGSPLGPWLSSGLKPLKSRGLQPQNLWNPTYRS | 26.78 ± 0.18% | 28.3 ± 2.3% | 5.75 ± 1.3% | 10.5 ± 0.56% | –
MGFNLTFHLSYKFRLLLLLTLCLTVVGWATSNYFVGAIQEIPKAKEFMANFHKTLILGKGKTLTNEASTKKVELDNCPSVSPYLRGQSKLIFKPDLTLEEVQAENPKVSRGRYRPQECKALQRVAILVPHRNREKHLMYLLEHLHPFLQRQQLDYGIYVIHQAEGKKFNRAKLLNVGYLEALKEENWDCFIFHDVDLVPENDFNLYKCEEHPKHLVVGRNSTGYRLRYSGYFGGVTALSREQFFKVNGFSNNYWGWGGEDDDLRLRVELQRMKISRPLPEVGKYTMVFHTRDKGNEVNAERMKLLHQVSRVWRTDGLSSCSYKLVSVEHNPLYINITVDFWFGA | 25.1 ± 1.2% | 27.9 ± 0.9% | 5.14 ± 0.69% | 6.72 ± 0.53% | –
MGFQKFSPFLALSILVLLQAGSLHAAPFRSALESSPADPATLSEDEARLLLAALVQDYVQMKASELEQEQEREGSSLDSPRSKRCGNLSTCMLGTYTQDFNKFHTFPQTAIGVGAPGKKRDMSSDLERDHRPHVSMPQNAN | – | – | – | – | percentage of EdU-negative (MCF7; [4]): 26.7 ± 2.5%; percentage of EdU-negative (MCF7; [5]): 25.55 ± 0.19%; percentage of EdU-negative (hTERT-HMEC; [4]): 5.19 ± 0.42%; percentage of EdU-negative (hTERT-HMEC; [5]): 5.1 ± 0.19%
MGFWILAILTILMYSTAAKFSKQSWGLENEALIVRCPRQGKPSYTVDWYYSQTNKSIPTQERNRVFASGQLLKFLPAAVADSGIYTCIVRSPTFNRTGYANVTIYKKQSDCNVPDYLMYSTVSGSEKNSKIYCPTIDLYNWTAPLEWFKNCQALQGSRYRAHKSFLVIDNVMTEDAGDYTCKFIHNENGANYSVTATRSFTVKDEQGFSLFPVIGAPAQNEIKEVEIGKNANLTCSACFGKGTQFLAAVLWQLNGTKITDFGEPRIQQEEGQNQSFSNGLACLDMVLRIADVKEEDLLLQYDCLALNLHGLRRHTVRLSRKNPIDHHSIYCIIAVCSVFLMLINVLVIILKMFWIEATLLWRDIAKPYKTRNDGKLYDAYVVYPRNYKSSTDGASRVEHFVHQILPDVLENKCGYTLCIYGRDMLPGEDVVTAVETNIRKSRRHIFILTPQITHNKEFAYEQEVALHCALIQNDAKVILIEMEALSELDMLQAEALQDSLQHLMKVQGTIKWREDHIANKRSLNSKFWKHVRYQMPVPSKIPRKASSLTPLAAQKQ | – | – | – | – | percentage of EdU-negative (MCF7; [6]): 23.7 ± 0.79%; percentage of EdU-negative (MCF7; [7]): 25.9 ± 0.45%; percentage of EdU-negative (hTERT-HMEC; [6]): 5.463 ± 0.046%; percentage of EdU-negative (hTERT-HMEC; [7]): 5.2 ± 0.66%
MGGPRALLAALWALEAAGTAALRIGAFNIQSFGDSKVSDPACGSIIAKILAGYDLALVQEVRDPDLSAVSALMEQINSVSEHEYSFVSSQPLGRDQYKEMYLFVYRKDAVSVVDTYLYPDPEDVFSREPFVVKFSAPGTGERAPPLPSRRALTPPPLPAAAQNLVLIPLHAAPHQAVAEIDALYDVYLDVIDKWGTDDMLFLGDFNADCSYVRAQDWAAIRLRSSEVFKWLIPDSADTTVGNSDCAYDRIVACGARLRRSLKPQSATVHDFQEEFGLDQTQALAISDHFPVEVTLKFHR | – | – | – | – | percentage of EdU-negative (MCF7; [8]): 25.9 ± 0.85%; percentage of EdU-negative (MCF7; [9]): 23.9 ± 1.7%; percentage of EdU-negative (hTERT-HMEC; [8]): 4.97 ± 0.32%; percentage of EdU-negative (hTERT-HMEC; [9]): 5.04 ± 0.098%
